Reference: patent US20220306719A1 (JULIUS MAXIMILIANS UNIVERSIT T W RZBURG, published 2022)
Values joined by “and” are separate entries in the source; they are usually repeats but may differ in a detail not shown here. Equal entries are not always repeated.

Assays:
Assay in all cases: cell-based or functional assay
[1] = biological target: CD19_IgG3_MiH3 CAR (FMC63 scFv, IgG3_MiH3 spacer, CD28tm, 4-1BB/CD3zeta) (human)
[2] = biological target: CD19_IgG3_MiH4 CAR (FMC63 scFv, IgG3_MiH4 spacer, CD28tm, 4-1BB/CD3zeta) (human)
Chain of CD19_IgG3_MiH4 CAR (FMC63 scFv, IgG3_MiH4 spacer, CD28tm, 4-1BB/CD3zeta) (human) (chain, as listed by the source): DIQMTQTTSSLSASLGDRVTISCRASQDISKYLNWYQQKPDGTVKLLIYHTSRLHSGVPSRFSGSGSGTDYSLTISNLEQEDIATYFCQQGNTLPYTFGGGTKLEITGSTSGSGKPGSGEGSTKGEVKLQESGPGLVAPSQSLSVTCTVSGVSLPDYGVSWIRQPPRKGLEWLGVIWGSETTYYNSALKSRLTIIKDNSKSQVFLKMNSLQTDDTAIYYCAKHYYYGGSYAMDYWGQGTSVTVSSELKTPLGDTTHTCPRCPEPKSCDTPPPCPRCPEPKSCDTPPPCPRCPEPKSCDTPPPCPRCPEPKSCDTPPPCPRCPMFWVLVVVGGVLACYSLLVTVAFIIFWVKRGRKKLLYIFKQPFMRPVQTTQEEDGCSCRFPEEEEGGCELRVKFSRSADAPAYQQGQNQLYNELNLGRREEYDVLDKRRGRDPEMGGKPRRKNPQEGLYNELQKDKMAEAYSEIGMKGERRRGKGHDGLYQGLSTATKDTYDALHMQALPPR

[3] = biological target: CD19_IgG3_MiH5 CAR (FMC63 scFv, IgG3_MiH5 spacer, CD28tm, 4-1BB/CD3zeta) (human)
Chain of CD19_IgG3_MiH5 CAR (FMC63 scFv, IgG3_MiH5 spacer, CD28tm, 4-1BB/CD3zeta) (human) (chain, as listed by the source): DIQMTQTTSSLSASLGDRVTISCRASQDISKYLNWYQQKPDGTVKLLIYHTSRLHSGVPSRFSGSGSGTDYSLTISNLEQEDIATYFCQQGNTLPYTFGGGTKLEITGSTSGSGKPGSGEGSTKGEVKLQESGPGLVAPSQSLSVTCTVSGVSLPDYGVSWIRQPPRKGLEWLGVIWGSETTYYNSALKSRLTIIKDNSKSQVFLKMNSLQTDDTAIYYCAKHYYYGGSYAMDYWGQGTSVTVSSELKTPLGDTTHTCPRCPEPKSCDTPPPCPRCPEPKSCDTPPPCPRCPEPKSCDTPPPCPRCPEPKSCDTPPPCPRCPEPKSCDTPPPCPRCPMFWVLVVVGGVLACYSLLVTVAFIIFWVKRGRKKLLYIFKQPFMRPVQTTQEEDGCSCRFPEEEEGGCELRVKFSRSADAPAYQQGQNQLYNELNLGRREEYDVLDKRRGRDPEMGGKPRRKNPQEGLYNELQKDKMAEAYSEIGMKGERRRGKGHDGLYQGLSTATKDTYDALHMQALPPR

[4] = biological target: CD20_IgG3_MiH5/MiH3 CAR (advanced IgG3 format, Leu16 scFv)
Chain of CD20_IgG3_MiH5/MiH3 CAR (advanced IgG3 format, Leu16 scFv) (chain, as listed by the source): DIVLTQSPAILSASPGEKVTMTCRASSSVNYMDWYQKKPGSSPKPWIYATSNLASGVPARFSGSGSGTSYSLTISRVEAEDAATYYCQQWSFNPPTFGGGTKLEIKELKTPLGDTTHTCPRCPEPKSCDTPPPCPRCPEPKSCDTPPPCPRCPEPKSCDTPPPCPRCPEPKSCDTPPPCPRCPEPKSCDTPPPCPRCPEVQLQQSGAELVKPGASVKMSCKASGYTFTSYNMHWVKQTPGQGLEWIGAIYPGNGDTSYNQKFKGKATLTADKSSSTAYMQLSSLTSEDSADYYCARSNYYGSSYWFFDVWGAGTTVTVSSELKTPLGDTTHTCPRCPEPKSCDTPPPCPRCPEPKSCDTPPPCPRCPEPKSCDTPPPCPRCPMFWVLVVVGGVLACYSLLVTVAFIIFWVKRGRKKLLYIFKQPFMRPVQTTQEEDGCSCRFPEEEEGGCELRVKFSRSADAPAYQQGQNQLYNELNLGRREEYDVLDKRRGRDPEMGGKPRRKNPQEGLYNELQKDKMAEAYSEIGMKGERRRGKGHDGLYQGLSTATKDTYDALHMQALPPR

[5] = biological target: R11_IgG3_MiH3 CAR (ROR1-specific R11 scFv, IgG3_MiH3 spacer)
Chain of R11_IgG3_MiH3 CAR (ROR1-specific R11 scFv, IgG3_MiH3 spacer) (chain, as listed by the source): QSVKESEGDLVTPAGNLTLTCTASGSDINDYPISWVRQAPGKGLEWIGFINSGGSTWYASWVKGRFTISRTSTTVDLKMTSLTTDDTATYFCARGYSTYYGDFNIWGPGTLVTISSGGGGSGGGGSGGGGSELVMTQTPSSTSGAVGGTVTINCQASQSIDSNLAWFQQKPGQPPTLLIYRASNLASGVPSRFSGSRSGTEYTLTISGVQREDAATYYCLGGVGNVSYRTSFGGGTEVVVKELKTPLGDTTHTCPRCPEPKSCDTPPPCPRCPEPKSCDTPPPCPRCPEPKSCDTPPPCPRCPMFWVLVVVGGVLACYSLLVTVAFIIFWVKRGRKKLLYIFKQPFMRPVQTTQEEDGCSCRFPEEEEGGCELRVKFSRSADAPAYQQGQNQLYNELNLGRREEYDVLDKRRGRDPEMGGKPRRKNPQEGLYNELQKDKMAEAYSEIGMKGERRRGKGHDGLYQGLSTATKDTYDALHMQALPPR

[6] = biological target: R11_IgG3_MiH5/MiH3 CAR (advanced IgG3 format, ROR1-specific R11 scFv)
Chain of R11_IgG3_MiH5/MiH3 CAR (advanced IgG3 format, ROR1-specific R11 scFv) (chain, as listed by the source): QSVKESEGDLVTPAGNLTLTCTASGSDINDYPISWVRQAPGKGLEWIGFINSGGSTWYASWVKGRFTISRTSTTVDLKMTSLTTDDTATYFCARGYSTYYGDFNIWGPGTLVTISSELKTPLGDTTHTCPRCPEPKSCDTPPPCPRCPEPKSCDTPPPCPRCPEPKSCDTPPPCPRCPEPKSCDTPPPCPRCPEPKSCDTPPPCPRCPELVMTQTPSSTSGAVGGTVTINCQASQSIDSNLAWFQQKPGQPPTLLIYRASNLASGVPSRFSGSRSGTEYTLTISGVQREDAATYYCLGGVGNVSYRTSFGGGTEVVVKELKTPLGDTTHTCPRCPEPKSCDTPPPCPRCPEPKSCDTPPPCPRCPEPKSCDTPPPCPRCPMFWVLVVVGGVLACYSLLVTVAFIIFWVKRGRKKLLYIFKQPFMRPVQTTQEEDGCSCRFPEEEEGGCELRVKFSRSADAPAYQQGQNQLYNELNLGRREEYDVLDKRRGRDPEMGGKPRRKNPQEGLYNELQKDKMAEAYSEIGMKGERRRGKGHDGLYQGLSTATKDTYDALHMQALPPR

[7] = biological target: CD19_IgG3_MiH1 CAR (FMC63 scFv, IgG3_MiH1 spacer, CD28tm, 4-1BB/CD3zeta)
Chain of CD19_IgG3_MiH1 CAR (FMC63 scFv, IgG3_MiH1 spacer, CD28tm, 4-1BB/CD3zeta) (chain, as listed by the source): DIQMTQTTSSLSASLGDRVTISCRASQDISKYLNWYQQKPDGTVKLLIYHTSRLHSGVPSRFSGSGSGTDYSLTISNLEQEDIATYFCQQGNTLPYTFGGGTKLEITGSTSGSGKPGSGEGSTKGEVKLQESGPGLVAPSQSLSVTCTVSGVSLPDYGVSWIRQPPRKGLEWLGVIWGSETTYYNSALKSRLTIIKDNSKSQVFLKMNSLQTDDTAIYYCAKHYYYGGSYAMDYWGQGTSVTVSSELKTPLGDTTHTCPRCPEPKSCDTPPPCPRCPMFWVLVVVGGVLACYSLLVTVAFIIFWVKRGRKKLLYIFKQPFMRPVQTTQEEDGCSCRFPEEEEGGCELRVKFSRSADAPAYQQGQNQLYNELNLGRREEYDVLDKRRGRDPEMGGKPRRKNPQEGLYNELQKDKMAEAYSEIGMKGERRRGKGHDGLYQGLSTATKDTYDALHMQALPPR

[8] = biological target: CD19_IgG3_MiH5/MiH1 CAR (advanced IgG3 format: FMC63 scFv with MiH5 linker between the variable domains, MiH1 …)
Chain of CD19_IgG3_MiH5/MiH1 CAR (advanced IgG3 format: FMC63 scFv with MiH5 linker between the variable domains, MiH1 …) (chain, as listed by the source): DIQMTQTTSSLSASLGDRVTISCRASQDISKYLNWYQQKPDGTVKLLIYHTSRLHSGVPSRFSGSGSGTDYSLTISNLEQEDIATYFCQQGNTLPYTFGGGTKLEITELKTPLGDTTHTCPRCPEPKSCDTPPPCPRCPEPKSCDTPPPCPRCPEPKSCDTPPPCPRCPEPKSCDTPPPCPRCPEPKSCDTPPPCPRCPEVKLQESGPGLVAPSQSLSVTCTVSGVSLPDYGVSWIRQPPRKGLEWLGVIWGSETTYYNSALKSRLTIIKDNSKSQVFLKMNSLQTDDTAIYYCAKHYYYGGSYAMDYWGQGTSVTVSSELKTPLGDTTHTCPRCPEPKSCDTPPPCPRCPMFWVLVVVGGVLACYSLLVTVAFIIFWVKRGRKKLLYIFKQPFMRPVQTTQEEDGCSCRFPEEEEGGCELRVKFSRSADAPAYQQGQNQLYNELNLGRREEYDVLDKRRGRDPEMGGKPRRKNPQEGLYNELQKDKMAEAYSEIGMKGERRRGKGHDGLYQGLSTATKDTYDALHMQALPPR

Chain of CD19_IgG3_MiH3 CAR (FMC63 scFv, IgG3_MiH3 spacer, CD28tm, 4-1BB/CD3zeta) (human) (chain, as listed by the source): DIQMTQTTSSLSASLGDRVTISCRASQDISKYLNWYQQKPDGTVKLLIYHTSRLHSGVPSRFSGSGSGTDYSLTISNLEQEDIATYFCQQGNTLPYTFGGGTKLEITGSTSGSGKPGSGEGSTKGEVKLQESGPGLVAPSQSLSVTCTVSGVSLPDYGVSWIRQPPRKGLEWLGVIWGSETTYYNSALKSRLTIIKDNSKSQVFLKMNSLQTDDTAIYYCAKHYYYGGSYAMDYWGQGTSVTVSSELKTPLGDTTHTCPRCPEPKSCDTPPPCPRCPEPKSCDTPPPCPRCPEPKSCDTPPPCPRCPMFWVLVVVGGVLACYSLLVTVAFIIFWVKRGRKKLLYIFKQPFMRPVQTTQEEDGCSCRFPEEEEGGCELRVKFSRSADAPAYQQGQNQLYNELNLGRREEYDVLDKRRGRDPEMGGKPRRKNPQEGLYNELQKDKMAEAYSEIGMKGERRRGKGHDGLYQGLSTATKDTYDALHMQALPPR

B1: anti-MiH antibody #1 (antibody, V domains shown)
VH: QVQLLESGPGLVAPSQTLSITCTVSGFSFTNYDLHWVRQPPGKGLEWLGVIWAVGSTNYNSALMSRLSISKDNSKSQVFLKMNSLQTDDTAIYYCAREEDYRYGMDYWGQGTSVTVSS
VL: ELVMTQSPLSLPVSLGDQASISCRSSQSLVHSNGNTYLHWYLQKPGQSPKLLIYKVSNRFSGVPDRFSGSGSGTDFTLKISRVEAEDLGVYFCSQSTHVPYTFGGGTKLEIK
[1]
  increase in CAR T cell numbers after 7 days of stimulation on plate-bound antibody: > 2 fold
[2]
  expansion of CAR T cells after one week on plate-bound antibody: 4 fold
[3]
  expansion of CAR T cells after one week on plate-bound antibody: 4 fold

B2: anti-MiH antibody #1-ADC (anti-MiH antibody #1 conjugated to an anthracycline-based cytotoxic payload) (antibody, V domains shown)
VH: QVQLLESGPGLVAPSQTLSITCTVSGFSFTNYDLHWVRQPPGKGLEWLGVIWAVGSTNYNSALMSRLSISKDNSKSQVFLKMNSLQTDDTAIYYCAREEDYRYGMDYWGQGTSVTVSS
VL: ELVMTQSPLSLPVSLGDQASISCRSSQSLVHSNGNTYLHWYLQKPGQSPKLLIYKVSNRFSGVPDRFSGSGSGTDFTLKISRVEAEDLGVYFCSQSTHVPYTFGGGTKLEIK
modifications: conjugated to an anthracycline-based cytotoxic payload (chain and site not stated)
[4]
  ADC concentration with the told effect on viable CAR T cells (72 h): 500 ng/mL and 5000 ng/mL
[5]
  ADC concentration with the told effect on viable CAR T cells (72 h): 500 ng/mL and 5000 ng/mL
[6]
  ADC concentration with the told effect on viable CAR T cells (72 h): 500 ng/mL and 5000 ng/mL
[7]
  ADC concentration with the told effect on viable CAR T cells (72 h): 10 µg/mL
[1]
  ADC concentration with the told effect on viable CAR T cells (72 h): 5 µg/mL
[2]
  ADC concentration with the told effect on viable CAR T cells (72 h): 5 µg/mL
[3]
  ADC concentration with the told effect on viable CAR T cells (72 h): 50 ng/mL and 5000 ng/mL
[8]
  ADC concentration with the told effect on viable CAR T cells (72 h): 5 µg/mL
